Where only a bound is given, the exact number is not on record here.

The test deals with HLA-B*07:02. The test can be described thus: IEDB peptide-MHC binding, purified MHC/competitive/fluorescence; ≥ and ≤ were set here for values at or beyond the usual limits of such assays.

In the case of LPFDKITIM, the IC50 (source organism: H1N1 subtype) came to 4.81 µM. Consider LPFDKPTIM, for which, where the note is “source organism: H3N2 subtype”, the concentration for half-maximal inhibition (IC50) is 0.335 µM. LPFDKQTIM yielded an IC50 (source organism: H3N2 subtype) of 46.5 µM.

Sequence LPFDKTTIM returned an IC50 (source organism: H1N1 subtype Influenza A/Oklahoma/7485/01) of 0.192 µM. Under “source organism: H1N1 subtype”, LPFDRPTIM registered an IC50 of 7.91 µM. The sequence LPFEKSIVM gave an IC50 (source organism: H3N2 subtype) of 0.494 µM. This lies in the sub-micromolar range. Turning to LPFEKTTIM, the IC50 (source organism: H1N1 subtype) turned out to be 1.19 µM. Consider LPFERATII, for which the IC50 (source organism: H3N2 subtype) worked out at 1.18 µM. Still for that read-out and setting: the value for LPFERSTVM was not below 149 µM.

The sequence LPFGKTTIM displayed a half-inhibitory concentration (IC50) (source organism: H1N1 subtype) of 0.881 µM.

A word on the IC50: it is the concentration that gives 50% inhibition. Read a low IC50 as greater potency in that assay.

Source of the values: the Immune Epitope Database (IEDB).
